Reference: paper PMC5658772 (Emerging Microbes & Infections, 2017)

B1: m302 IgG1 (antibody, V domains shown)
VH: EVQLVQSGGGLVKPGRSLRLSCAASGFTFSSYAMHWVRQAPGKGLEWVAVISYDGSNKYYADSVKGRFTISRDNSKNTLYLQMNSLRAEDTAVYYCAREIGDYYYYGMDVWGQGTLVTVSS
VL: EIVMTQSPATLSLSPGERATLSCRASQSVSSYLAWYQQKPGQAPRLLIYDASNRATGIPARFSGSGSGTDFTLTISSLQPEDFATYYCQQSYSTPLTFGGGTKVEIK
notes: also called m302 mAb; IgG m302; source: Expi293, transient, purified (protein G)
B2: m301 IgG1 (antibody, V domains shown)
VH: EVQLVQSGGGLVKPGGSLRLSCAASGFTFSSYGMHWVRQAPGKGLEWVAVISYDGSNKYYADSVKGRFTISRDNSKNTLYLQMNSLRAEDTAVYYCAKEVGRSYFDYWGQGTLVTVSS
VL: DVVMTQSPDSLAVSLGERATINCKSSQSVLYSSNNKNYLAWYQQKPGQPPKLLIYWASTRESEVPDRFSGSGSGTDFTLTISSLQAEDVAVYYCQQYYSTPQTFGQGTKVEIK
notes: also called m301 mAb; IgG m301; source: Expi293, transient, purified (protein G)

Biological target: T1, ZIKV envelope protein domain III-hFc fusion protein (ZIKV-DIII-hFc) (Zika virus strain MR766, UniProt Q32ZE1)
T1 construct: source: 293 FreeStyle, transient, purified from conditioned culture medium
Test: BLI; Octet-Red96, 37 °C; […] (30 μg/mL, sodium acetate pH 5.0) […]; association 300 s, dissociation 1500 s; 1:1 Langmuir model; […]
Settings: both partners purified

| Binder | Kd [nM] | koff [s⁻¹] |
| --- | --- | --- |
| B1 | 47 | 0.002 |
| B2 | 0.2 | 4e-05 |
